# B1: mouse fibulin-2 construct S427-G545, three anaphylatoxin-like modules (wild-type) (domain or fragment, UniProt P37889 427-545, looked up)
# chain: STKDLIETCCAAGQQWAIDNDECQEIPENGAQSDICRIAQRQCCISYLKEKSCVAGVMGAKEGETCGAEDNDTCGVSLYKQCCDCCGLGLRVRAEGQSCESNPNLGYPCNHVMLSCCEG
# notes: fibulin-2, mouse, residues S427-G545 (three anaphylatoxin-like modules); numbering is according to the full-length protein; Homodimer linked by an inter-molecular disulfide bond via C500; 8 intra-molecular disulfide bonds in each chain; also called MH6M-S427-G545; pAS79 construct; source: E. coli BL21 (DE3) with the CyDisCo plasmid pMJS205 (Erv1p and PDI), purified (nickel IMAC, SEC); not shown: …
# Key:
# [1] = target: mouse fibulin-2 construct S427-G545, three anaphylatoxin-like modules (mutant C500L) (mouse) (UniProt P37889); test: SEC-MALS; 50 µL of ~2 mg/mL SEC purified protein on Superdex 200 Increase 10/300, 20 mM Tris-HCl pH 8, 150 mM NaCl, 0.5 mL/min
# [2] = target: the molecule itself; test: as above
Molecule,stoichiometry N [1],stoichiometry N [2]
"mouse fibulin-2 construct S427-G545, three anaphylatoxin-like modules (mutant C500L) (from UniProt P37889 427-545) (domain or fragment)",2,–
B1,–,2

# — paper PMC11220139, “Biophysical and structural studies of fibulin-2” (Scientific Reports, 2024)
